From patent US20050287163A1, “Mycoplasma polypeptides” (priority 2002, published 2005)
“Also recorded” adds a separate entry of the source.

How the values were obtained:
[1] = test system: Mhyo membrane-induced [Ca2+]i increase in ciliated tracheal cells; test: Protease pretreatment of Mhyo membrane, effect on membrane-induced [Ca2+]i increase; format: cell-based, porcine; details: pretreatment of the membrane for 8 hours, 37° C.
Method: FIG. 6 contains four graphs plotting [Ca^2+]i response in ciliated porcine tracheal cells inoculated with Mhyo membranes. Each trace indicates the [Ca^2+]i changes in each tracheal cell. The arrows indicate when administration occurred. (A) The membrane preparation (100 μg/mL) increased [Ca^2+]i. (B) Digestion with proteinase K blocked the membrane-induced increase in [Ca^2+]i. The membrane (100 μg/0.1 mL PBS) was incubated with proteinase K (2 μg) at 37° C. for 8 hours before it was applied to tracheal cells in 0.9 mL Krebs-Ringer bicarbonate (KRB) buffer. (C) Digestion with trypsin potentiated the membrane-induced increase in [Ca^2+]i. The membrane (100 μg/0.1 mL PBS) was incubated with trypsin (6 μg) at 37° C. for 30 minutes before it was applied to tracheal cells in 0.9 mL KRB. […] The soluble protein was prepared by subjecting the trypsinized membrane to ultracentrifigation (100,000× g, 60 minutes) to obtain the supernatant.
Mycoplasmas lack cell walls and have only one type of membrane, the plasma membrane (Razin S. (1993) Mycoplasma membranes as models in membrane research (Chapter 2), In: Subcellular Biochemistry. Vol 20: Mycoplasma Cell Membranes, edited by Rottem S, Kahane I. Plenum Press, New York. pp. 1-28). The Mhyo membrane was prepared by osmotic lysis of the organisms and tested to determine if it increased [Ca^2+]i in ciliated tracheal cells. […]

[2] = test system: tryptic Mhyo polypeptide fragment-induced [Ca2+]i increase in ciliated tracheal epithelia; test: Soybean trypsin inhibitor on tryptic Mhyo polypeptide fragment-induced [Ca2+]i increase; format: cell-based, swine; details: inhibitor 10 U/mL, incubated with preparation 37° C. 10 minutes
Method: FIG. 14 is a graph plotting [Ca^2+]i increase in porcine ciliated tracheal cells incubated with tryptic Mhyo membrane preparation pretreated with a soybean trypsin inhibitor (TI). […] TI was incubated with the tryptic membrane preparation at 37° C. for 10 minutes prior to administration. […] Each trace depicts [Ca^2+]i changes in one cell.
(§1) According to a recent report, trypsin at 0.1 U/mL can increase [Ca^2+]i in guinea pig tracheal epithelia (Oshiro et al., Life Sci., 71:547-558 (2002)). Since the estimated trypsin concentration in the [Ca^2+]i experiments described herein is about 1 U/mL, we tested whether trypsin plays a role in the observed tryptic fragment-induced [Ca^2+]i increase.

[3] = test system: trypsin-induced [Ca2+]i increase in swine ciliated epithelia; test: Soybean trypsin inhibitor on trypsin-induced [Ca2+]i increase; format: cell-based; details: inhibitor 10 U/mL; trypsin 10 U/mL
Text: as §1

| Molecule | effect of protease pretreatment on membrane-induced [Ca2+]i increase [1] | effect on tryptic Mhyo polypeptide fragment-induced [Ca2+]i increase [2] | effect on tryptic Mhyo polypeptide fragment-induced [Ca2+]i increase ([2]; listed as TI) | effect on trypsin-induced [Ca2+]i increase [3] |
| --- | --- | --- | --- | --- |
| proteinase K: proteolytic enzyme used to pretreat the membrane (protein, UniProt P06873 106-384, looked up) Proteinase K: AAQTNAPWGLARISSTSPGTSTYYYDESAGQGSCVYVIDTGIEASHPEFEGRAQMVKTYYYSSRDGNGHGTHCAGTVGSRTYGVAKKTQLFGVKVLDDNGSGQYSTIIAGMDFVASDKNNRNCPKGVVASLSLGGGYSSSVNSAAARLQSSGVMVAVAAGNNNADARNYSPASEPSVCTVGASDRYDRRSSFSNYGSVLDIFGPGTSILSTWIGGSTRSISGTSMATPHVAGLAAYLMTLGKTTAASACRYIADTANKGDLSNIPFGTVNLLAYNNYQA | blocked; also recorded: abolished |  |  |  |
| soybean trypsin inhibitor: soybean trypsin inhibitor (protein, UniProt P01070 25-205, looked up) Trypsin inhibitor A: DFVLDNEGNPLENGGTYYILSDITAFGGIRAAPTGNERCPLTVVQSRNELDKGIGTIISSPYRIRFIAEGHPLSLKFDSFAVIMLCVGIPTEWSVVEDLPEGPAVKIGENKDAMDGWFRLERVSDDEFNNYKLVFCPQQAEDDKCGDIGISIDHDDGTRRLVVSKNKPLVVQFQKLDKESL |  | failed to block | failed to inhibit | inhibited |
| papain: proteolytic enzyme used to pretreat the membrane (protein, UniProt P00784 134-345, looked up) Papain: IPEYVDWRQKGAVTPVKNQGSCGSCWAFSAVVTIEGIIKIRTGNLNEYSEQELLDCDRRSYGCNGGYPWSALQLVAQYGIHYRNTYPYEGVQRYCRSREKGPYAAKTDGVRQVQPYNEGALLYSIANQPVSVVLEAAGKDFQLYRGGIFVGPCGNKVDHAVAAVGYGPNYILIKNSWGTGWGENGYIRIKRGTGNSYGVCGLYTSSFYPVKN | abolished |  |  |  |
